# Experimental data: patent US20210155689A1 (SHANGHAI PHARMAEXPLORER, published 2021)
# Several values for one entry are separate records, joined by “and”; a condition that tells them apart may be missing. Equal entries are not always repeated.
# Experiments:
# [1] = biological target: human LAG-3 protein (full length, on cells) (human) (UniProt P18627); assay: cell-based or functional assay
# [2] = biological target: human LAG-3 protein with hFc tag (hLAG-3-hFc protein) (human) (UniProt P18627); assay: ELISA, hLAG-3-hFc coated; 0.0000 nM
# [3] = biological target: human LAG-3 protein with hFc tag (hLAG-3-hFc protein) (human) (UniProt P18627); assay: ELISA, hLAG-3-hFc coated; 0.0001 nM
# [4] = biological target: human LAG-3 protein with hFc tag (hLAG-3-hFc protein) (human) (UniProt P18627); assay: ELISA, hLAG-3-hFc coated; 0.0007 nM
# [5] = biological target: human LAG-3 protein with hFc tag (hLAG-3-hFc protein) (human) (UniProt P18627); assay: ELISA, hLAG-3-hFc coated; 0.0067 nM
# [6] = biological target: human LAG-3 protein with hFc tag (hLAG-3-hFc protein) (human) (UniProt P18627); assay: ELISA, hLAG-3-hFc coated; 0.0667 nM
# [7] = biological target: human LAG-3 protein with hFc tag (hLAG-3-hFc protein) (human) (UniProt P18627); assay: ELISA, hLAG-3-hFc coated; 0.6667 nM
# [8] = biological target: human LAG-3 protein with hFc tag (hLAG-3-hFc protein) (human) (UniProt P18627); assay: ELISA, hLAG-3-hFc coated; 6.6667 nM
# [9] = biological target: hFc tagged monkey LAG-3 protein (cLAG-3-hFc protein) (monkey; human); assay: ELISA, cLAG-3-hFc coated; 0.0000 nM
# [10] = biological target: hFc tagged monkey LAG-3 protein (cLAG-3-hFc protein) (monkey; human); assay: ELISA, cLAG-3-hFc coated; 0.0001 nM
# [11] = biological target: hFc tagged monkey LAG-3 protein (cLAG-3-hFc protein) (monkey; human); assay: ELISA, cLAG-3-hFc coated; 0.0007 nM
# [12] = biological target: hFc tagged monkey LAG-3 protein (cLAG-3-hFc protein) (monkey; human); assay: ELISA, cLAG-3-hFc coated; 0.0067 nM
# [13] = biological target: hFc tagged monkey LAG-3 protein (cLAG-3-hFc protein) (monkey; human); assay: ELISA, cLAG-3-hFc coated; 0.0667 nM
# [14] = biological target: hFc tagged monkey LAG-3 protein (cLAG-3-hFc protein) (monkey; human); assay: ELISA, cLAG-3-hFc coated; 0.6667 nM
# [15] = biological target: hFc tagged monkey LAG-3 protein (cLAG-3-hFc protein) (monkey; human); assay: ELISA, cLAG-3-hFc coated; 6.6667 nM
# [16] = biological target: mouse LAG-3 protein with hFc tag (mLAG-3-hFc protein) (mouse; human) (UniProt Q61790); assay: ELISA, mLAG-3-hFc coated; 0.0001 nM
# [17] = biological target: mouse LAG-3 protein with hFc tag (mLAG-3-hFc protein) (mouse; human) (UniProt Q61790); assay: ELISA, mLAG-3-hFc coated; 0.0007 nM
# [18] = biological target: mouse LAG-3 protein with hFc tag (mLAG-3-hFc protein) (mouse; human) (UniProt Q61790); assay: ELISA, mLAG-3-hFc coated; 0.0067 nM
# [19] = biological target: mouse LAG-3 protein with hFc tag (mLAG-3-hFc protein) (mouse; human) (UniProt Q61790); assay: ELISA, mLAG-3-hFc coated; 0.0667 nM
# [20] = biological target: mouse LAG-3 protein with hFc tag (mLAG-3-hFc protein) (mouse; human) (UniProt Q61790); assay: ELISA, mLAG-3-hFc coated; 0.6667 nM
# [21] = biological target: mouse LAG-3 protein with hFc tag (mLAG-3-hFc protein) (mouse; human) (UniProt Q61790); assay: ELISA, mLAG-3-hFc coated; 6.6667 nM
# [22] = biological target: human LAG-3 protein with hFc tag (hLAG-3-hFc protein) (human) (UniProt P18627); assay: ELISA, hLAG-3-hFc coated; 66.6670 nM
# [23] = biological target: hFc tagged monkey LAG-3 protein (cLAG-3-hFc protein) (monkey; human); assay: ELISA, cLAG-3-hFc coated; 66.6670 nM
# [24] = biological target: mouse LAG-3 protein with hFc tag (mLAG-3-hFc protein) (mouse; human) (UniProt Q61790); assay: ELISA, mLAG-3-hFc coated; 66.6670 nM
# [25] = biological target: human LAG-3 protein (full length, on cells) (human) (UniProt P18627); assay: FACS on HEK293-hLAG-3 cells, antibody 8 nM
# [26] = biological target: human LAG-3 protein (full length, on cells) (human) (UniProt P18627); assay: FACS on HEK293-hLAG-3 cells, antibody 1.6 nM
# [27] = biological target: human LAG-3 protein (full length, on cells) (human) (UniProt P18627); assay: FACS on HEK293-hLAG-3 cells, antibody 0.32 nM
# [28] = biological target: human LAG-3 protein (full length, on cells) (human) (UniProt P18627); assay: FACS on HEK293-hLAG-3 cells, antibody 0.013 nM
# [29] = biological target: human LAG-3 protein (full length, on cells) (human) (UniProt P18627); assay: FACS on HEK293-hLAG-3 cells, antibody 0.064 nM
# [30] = biological target: human LAG-3 protein (full length, on cells) (human) (UniProt P18627); assay: FACS on HEK293-hLAG-3 cells, antibody 0 nM (background)
# [31] = biological target: human LAG-3-hFc protein (human) (UniProt P18627); assay: competition FACS: inhibition of LAG-3-hFc binding to MHC II on Raji cells, antibody 0.000 nM
# [32] = biological target: human LAG-3-hFc protein (human) (UniProt P18627); assay: competition FACS: inhibition of LAG-3-hFc binding to MHC II on Raji cells, antibody 0.274 nM
# [33] = biological target: human LAG-3-hFc protein (human) (UniProt P18627); assay: competition FACS: inhibition of LAG-3-hFc binding to MHC II on Raji cells, antibody 0.823 nM
# [34] = biological target: human LAG-3-hFc protein (human) (UniProt P18627); assay: competition FACS: inhibition of LAG-3-hFc binding to MHC II on Raji cells, antibody 2.469 nM
# [35] = biological target: human LAG-3-hFc protein (human) (UniProt P18627); assay: competition FACS: inhibition of LAG-3-hFc binding to MHC II on Raji cells, antibody 7.407 nM
# [36] = biological target: human LAG-3-hFc protein (human) (UniProt P18627); assay: competition FACS: inhibition of LAG-3-hFc binding to MHC II on Raji cells, antibody 22.222 nM
# [37] = biological target: human LAG-3-hFc protein (human) (UniProt P18627); assay: competition FACS: inhibition of LAG-3-hFc binding to MHC II on Raji cells, antibody 66.667 nM
# [38] = biological target: human LAG-3-hFc protein (human) (UniProt P18627); assay: competition FACS: inhibition of LAG-3-hFc binding to MHC II on Raji cells, antibody 200.000 nM
# [39] = biological target: MHC II on Raji cells; assay: FACS, Raji cells; 0 ug/ml
# [40] = biological target: MHC II on Raji cells; assay: FACS, Raji cells; 0.1 ug/ml
# [41] = biological target: MHC II on Raji cells; assay: FACS, Raji cells; 0.3 ug/ml
# [42] = biological target: MHC II on Raji cells; assay: FACS, Raji cells; 0.8 ug/ml
# [43] = biological target: MHC II on Raji cells; assay: FACS, Raji cells; 2.5 ug/ml
# [44] = biological target: MHC II on Raji cells; assay: FACS, Raji cells; 200 ug/ml
# [45] = biological target: MHC II on Raji cells; assay: FACS, Raji cells; 7.4 ug/ml
# [46] = biological target: MHC II on Raji cells; assay: FACS, Raji cells; 22.2 ug/ml
# [47] = biological target: MHC II on Raji cells; assay: FACS, Raji cells; 66.7 ug/ml
# [48] = biological target: human LAG-3 protein with hFc tag (hLAG-3-hFc protein) (human) (UniProt P18627); assay: ELISA, hLAG-3-hFc coated 1 ug/ml; 0.0000 ug/mL
# [49] = biological target: human LAG-3 protein with hFc tag (hLAG-3-hFc protein) (human) (UniProt P18627); assay: ELISA, hLAG-3-hFc coated 1 ug/ml; 0.0019 ug/mL
# [50] = biological target: human LAG-3 protein with hFc tag (hLAG-3-hFc protein) (human) (UniProt P18627); assay: ELISA, hLAG-3-hFc coated 1 ug/ml; 0.0096 ug/mL
# [51] = biological target: human LAG-3 protein with hFc tag (hLAG-3-hFc protein) (human) (UniProt P18627); assay: ELISA, hLAG-3-hFc coated 1 ug/ml; 0.0480 ug/mL
# [52] = biological target: human LAG-3 protein with hFc tag (hLAG-3-hFc protein) (human) (UniProt P18627); assay: ELISA, hLAG-3-hFc coated 1 ug/ml; 0.2400 ug/mL
# [53] = biological target: human LAG-3 protein with hFc tag (hLAG-3-hFc protein) (human) (UniProt P18627); assay: ELISA, hLAG-3-hFc coated 1 ug/ml; 1.2000 ug/mL
# [54] = biological target: human LAG-3 protein with hFc tag (hLAG-3-hFc protein) (human) (UniProt P18627); assay: ELISA, hLAG-3-hFc coated 1 ug/ml; 6.0000 ug/mL
# [55] = biological target: human LAG-3 protein with hFc tag (hLAG-3-hFc protein) (human) (UniProt P18627); assay: ELISA, hLAG-3-hFc coated 1 ug/ml; 30.0000 ug/mL
# Sequence of mouse LAG-3 protein with hFc tag (mLAG-3-hFc protein) (mouse; human) (Q61790 24-442): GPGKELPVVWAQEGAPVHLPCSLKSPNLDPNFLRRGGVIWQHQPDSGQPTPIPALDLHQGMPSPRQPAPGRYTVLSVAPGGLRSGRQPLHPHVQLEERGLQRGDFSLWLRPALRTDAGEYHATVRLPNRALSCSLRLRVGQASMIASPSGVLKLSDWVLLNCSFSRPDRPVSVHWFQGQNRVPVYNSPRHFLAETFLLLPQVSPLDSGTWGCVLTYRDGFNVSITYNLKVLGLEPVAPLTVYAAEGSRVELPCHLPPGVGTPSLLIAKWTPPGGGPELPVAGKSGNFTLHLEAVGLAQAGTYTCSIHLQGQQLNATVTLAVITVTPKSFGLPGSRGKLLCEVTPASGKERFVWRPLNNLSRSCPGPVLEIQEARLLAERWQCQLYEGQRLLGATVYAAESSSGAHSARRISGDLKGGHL
# Sequence of human LAG-3 protein (full length, on cells) (human) (P18627 23-525 limits assumed): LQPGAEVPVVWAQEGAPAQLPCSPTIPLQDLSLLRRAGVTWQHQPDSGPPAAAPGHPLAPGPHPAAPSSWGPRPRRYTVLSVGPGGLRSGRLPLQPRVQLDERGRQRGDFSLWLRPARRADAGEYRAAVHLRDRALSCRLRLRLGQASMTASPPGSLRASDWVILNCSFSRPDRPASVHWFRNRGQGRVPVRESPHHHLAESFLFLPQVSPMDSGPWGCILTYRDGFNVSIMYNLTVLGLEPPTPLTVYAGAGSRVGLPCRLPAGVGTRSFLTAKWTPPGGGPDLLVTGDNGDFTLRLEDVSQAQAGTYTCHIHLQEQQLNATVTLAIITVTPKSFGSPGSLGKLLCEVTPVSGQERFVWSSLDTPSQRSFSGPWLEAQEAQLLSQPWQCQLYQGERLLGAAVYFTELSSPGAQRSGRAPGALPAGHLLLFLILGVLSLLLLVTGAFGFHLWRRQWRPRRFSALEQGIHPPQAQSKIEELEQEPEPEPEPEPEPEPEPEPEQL
# Sequence of human LAG-3-hFc protein (human) (P18627 23-450): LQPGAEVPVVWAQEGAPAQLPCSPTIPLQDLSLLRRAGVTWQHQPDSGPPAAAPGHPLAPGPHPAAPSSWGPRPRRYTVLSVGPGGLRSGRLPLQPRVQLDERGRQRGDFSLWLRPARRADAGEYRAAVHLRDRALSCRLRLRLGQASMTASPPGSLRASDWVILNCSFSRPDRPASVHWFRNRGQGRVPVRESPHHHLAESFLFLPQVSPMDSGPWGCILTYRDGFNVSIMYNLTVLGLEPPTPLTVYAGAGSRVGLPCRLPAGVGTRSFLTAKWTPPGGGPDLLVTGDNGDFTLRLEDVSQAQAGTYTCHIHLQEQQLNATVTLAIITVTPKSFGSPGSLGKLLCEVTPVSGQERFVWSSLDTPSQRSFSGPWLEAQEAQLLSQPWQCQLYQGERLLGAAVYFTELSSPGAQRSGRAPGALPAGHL
# Sequence of human LAG-3 protein with hFc tag (hLAG-3-hFc protein) (human) (P18627 23-450): as above
# Sequence of hFc tagged monkey LAG-3 protein (cLAG-3-hFc protein) (monkey; human) (chain, as listed by the source): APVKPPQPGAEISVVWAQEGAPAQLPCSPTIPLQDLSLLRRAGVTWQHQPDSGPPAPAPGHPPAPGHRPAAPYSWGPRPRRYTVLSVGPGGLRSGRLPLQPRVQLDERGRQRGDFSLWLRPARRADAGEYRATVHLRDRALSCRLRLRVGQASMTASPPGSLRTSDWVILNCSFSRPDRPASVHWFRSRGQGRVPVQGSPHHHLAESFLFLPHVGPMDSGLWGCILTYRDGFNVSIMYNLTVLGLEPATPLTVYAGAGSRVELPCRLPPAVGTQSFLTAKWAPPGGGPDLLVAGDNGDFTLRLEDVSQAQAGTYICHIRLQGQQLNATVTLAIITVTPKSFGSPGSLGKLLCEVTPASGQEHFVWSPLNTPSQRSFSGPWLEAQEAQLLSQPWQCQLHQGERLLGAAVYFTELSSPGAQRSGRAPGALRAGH
substance,measurement,setting,value
hIgG control (human IgG) (antibody),"IL-2 production, pg/ml; antibody 0.0032 ug/ml, N = 1",[1],144 pg/mL
same,"IL-2 production, pg/ml; antibody 0.0032 ug/ml, N = 2",[1],123 pg/mL
same,"IL-2 production, pg/ml; antibody 0.016 ug/ml, N = 1",[1],141 pg/mL
same,"IL-2 production, pg/ml; antibody 0.016 ug/ml, N = 2",[1],143 pg/mL
same,"IL-2 production, pg/ml; antibody 0.08 ug/ml, N = 1",[1],157 pg/mL
same,"IL-2 production, pg/ml; antibody 0.08 ug/ml, N = 2",[1],145 pg/mL
same,"IL-2 production, pg/ml; antibody 0.4 ug/ml, N = 1",[1],159 pg/mL
same,"IL-2 production, pg/ml; antibody 0.4 ug/ml, N = 2",[1],179 pg/mL
same,"IL-2 production, pg/ml; antibody 2 ug/ml, N = 1",[1],164 pg/mL
same,"IL-2 production, pg/ml; antibody 2 ug/ml, N = 2",[1],162 pg/mL
same,"IL-2 production, pg/ml; antibody 10 ug/ml, N = 1",[1],142 pg/mL
same,"IL-2 production, pg/ml; antibody 10 ug/ml, N = 2",[1],168 pg/mL
same,OD450,[2],0.11 OD450
same,OD450,[3],0.1 OD450
same,OD450,[4],0.1 OD450
same,OD450,[5],0.13 OD450
same,OD450,[6],0.11 OD450
same,OD450,[7],0.14 OD450
same,OD450,[8],0.29 OD450
same,OD450,[9],0.13 OD450
same,OD450,[10],0.14 OD450
same,OD450,[11],0.13 OD450
same,OD450,[12],0.19 OD450
same,OD450,[13],0.14 OD450
same,OD450,[14],0.18 OD450
same,OD450,[15],0.29 OD450
same,OD450,[16],0.08 OD450
same,OD450,[17],0.07 OD450
same,OD450,[18],0.08 OD450
same,OD450,[19],0.08 OD450
same,OD450,[20],0.09 OD450
same,OD450,[21],0.18 OD450
same,OD450,[22],1.17 OD450
same,OD450,[23],1.16 OD450
same,OD450,[24],0.56 OD450
same,Mean fluorescence intensity,[25],3 MFI
same,Mean fluorescence intensity,[26],3 MFI
same,Mean fluorescence intensity,[27],3 MFI
same,Mean fluorescence intensity,[28],3 MFI
same,Mean fluorescence intensity,[29],3 MFI
same,Mean fluorescence intensity,[30],3 MFI
same,Inhibition rate (%),[31],0%
same,Inhibition rate (%),[32],0%
same,Inhibition rate (%),[33],2%
same,Inhibition rate (%),[34],3%
same,Inhibition rate (%),[35],1%
same,Inhibition rate (%),[36],0%
same,Inhibition rate (%),[37],4%
same,Inhibition rate (%),[38],1%
hFc (control protein of Table 1),Mean fluorescence value,[39],13 MFI
same,Mean fluorescence value,[40],13 MFI
same,Mean fluorescence value,[41],11 MFI
same,Mean fluorescence value,[42],12 MFI
same,Mean fluorescence value,[43],14 MFI
same,Mean fluorescence value,[44],21 MFI
same,Mean fluorescence value,[45],18 MFI
same,Mean fluorescence value,[46],20 MFI
same,Mean fluorescence value,[47],28 MFI
Negative protein (control of Table 2),OD450,[48],0.06 OD450
same,OD450,[49],0.06 OD450
same,OD450,[50],0.06 OD450
same,OD450,[51],0.06 OD450
same,OD450,[52],0.07 OD450 and 0.06 OD450
same,OD450,[53],0.07 OD450 and 0.06 OD450
same,OD450,[54],0.09 OD450
same,OD450,[55],0.16 OD450 and 0.14 OD450
